Assay results as given in US20060252692A1, “Inhibitors for use in hemostasis” (ZymoGenetics, Inc., priority 2002, published 2006).

Assays:
[1] = system: classical pathway of human Complement serum; experiment: Complement hemolysis assay, classical pathway (sheep erythrocytes); format: biochemical
Procedure: Complement assays were performed in 96 well round bottom plates. Gelatin Veronal buffer containing magnesium and calcium (141 mM NaCl, 1.8 mM sodium barbitol, 3.1 mM barbituric acid, 0.1% bovine gelatin, 0.5 mM MgCl2 and 0.15 mM CaCl2) was used for all serum and inhibitor dilutions as well as erythrocyte suspensions. Fifty microliters of standardized human Complement serum (Sigma Chemical Co.), diluted 1/37.5 (for a final dilution of 1/150) was added to each well. The inhibitor was added in triplicate, 50 μl/well. The serum and inhibitor were incubated for thirty minutes at room temperature. The assay was initiated by the addition of 100 μl of 2×10^8/ml unsensitized sheep erythrocytes (Colorado Serum Co.; Denver, Colo.), sensitized sheep erythrocytes, sensitized using the Hemolysin manufacturer's protocol (BioWhittaker Inc.; Walkersville, Md.) and rabbit erythrocytes containing 16 mM EGTA, and 4 mM Mg^++. A human serum dilution series from 1/50 to 1/400 was also plated as an activity control. Erythrocytes, lysed with distilled water and diluted to 100, 75, 50, 25, and 12.5 percent lysis, were used to quantify complement percent lysis. The plate was sealed and incubated at 37° C. for one hour with mixing every 15 minutes. […] The plate was read at 415 nm and percent lysis was calculated.

[2] = system: platelet rich thrombus formation induced by vascular injury; experiment: Platelet rich thrombus formation induced by vascular injury (Folts Model); format: in vivo, cynomolgus monkeys; conditions: remained open
Procedure: The effect of zsig37 on platelet rich thrombus formation induced by vascular injury (Folts Model) was also tested with cynomolgus monkeys. In the absence of treatment, blood flow in the vessels decreased to zero flow, indicating an occlusion of the artery. In contrast, cynomolgus monkeys that received the vascular injury and were treated with 1.0 mg/kg zsig37 had vessels that were fully patent by 20 minutes following treatment and remained open. When cynomolgus monkeys received the vascular injury and were treated with 0.5 mg/kg zsig37, their vessels were fully patent by 30 minutes following treatment and then remained open.

[3] = system: norepinepherin contracted aortic rings; experiment: Vasodilatation of norepinepherin contracted aortic rings; parameters: species or system Sprague Dawley rats; conditions: 323, 162, and 81 ng/ml
Procedure: The effect of zsig37 on vasodilatation of aortic rings was measured according to the procedures of (Dainty et al., J. Pharmacol. 100:767 (1990), and Rhee et al., Neurotox. 16:179 (1995)). Briefly, aortic rings 4 mm in length were taken from 4 month old Sprague Dawley rats and placed in modified Krebs solution (118.5 mM NaCl, 4.6 mM KCl, 1.2 mM MgSO4.7H2O, 1.2 mM KH2PO4, 2.5 mM CaCl2.2H2O, 24.8 mM NaHCO3 and 10 mM glucose). The rings were then attached to an isometric force transducer (Radnoti Inc.; Monrovia, Calif.) and the data recorded with a Ponemah physiology platform (Gould Instrument systems, Inc.; Valley View, Ohio) and placed in a 10 ml tissue bath oxygenated (95% O2, 5% CO2) modified Krebs solution. The tissues were adjusted to one gram resting tension and allowed to stabilize for one hour before testing.
The rings were tested by 5 μl additions of […] norepinepherin (Sigma Chemical Co.; St. Louis, Mo.) to a final concentration of about 1×10^−9 M and Carbachol, a muscarinic acetylcholine agonist (Sigma Chemical Co.) at 2×10^−7 M final, to test the integrity of the rings. After each test, the rings were washed three times with fresh buffer, five minutes between washes and allowed to rest one hour. […] Zsig37 was then added to one, two, or three of the four baths, without flushing, and tension on the rings was recorded and compared to the control rings. […]

collagen type VI = target: T1, collagen type VI (Homo sapiens, UniProt P12109+P12110+P12111); experiment: Quantitative ELISA binding to collagen type VI; conditions: Zsig37-FITC 0.4 to 4 μg/ml, 10 μg collagen type VI
T1 construct: purchased Chemicon International; Temecula, Calif
Procedure: An ELISA (Enzyme-linked Immunosorbant Assay) was used to measure binding of zsig37 to complement C1q, and to the following matrix proteins: Bovine Collagen Type I (Becton Dickinson; Lincoln Park, N.J.), laminin, vitronectin, fibronectin, human collagen Types II, III, IV, V, VI (Chemicon International; Temecula, Calif.). BSA V (Sigma Chemical Co.) was used as a negative control. Just prior to use, the proteins were diluted in 2× PBS (Phosphate Buffered Saline, Sigma Chemical Co.) to 100 μg/ml and adjusted to pH 7.2 with 0.1 N NaOH. Each protein sample was plated in quadruplicate (100 μl/well) into a 96 well plate. The plate was allowed to dry overnight in a laminar flow hood and washed three times with 400 μl of 5 mg/ml BSA in 1× PBS and blotted dry. Zsig37 was FITC labeled according to manufacturer's instruction (Pierce; Rockford, Ill.). Into each well was added 100 μl of 1.8 μg/ml zsig37-FITC in 5% BSA, PBS. The plates were incubated for 1.5 hours at room temperature then washed 3 time with 5% BSA, PBS. To each well was then added 100 μl of 1:400 mouse anti-FITC/Biotin (Sigma Chemical Co.). […]
The ELISA assay for binding, described above, was modified to quantitatively evaluate binding. […] The luminescence from the SUPERSIGNAL reagent was read on a Wallac 1420 plate reader (Wallac; Gaithersburg Md.) and the intensity used as a quantitative measure of the zsig37-FITC bound to the ELISA plate.

T1 sequence (P12109 20-1028): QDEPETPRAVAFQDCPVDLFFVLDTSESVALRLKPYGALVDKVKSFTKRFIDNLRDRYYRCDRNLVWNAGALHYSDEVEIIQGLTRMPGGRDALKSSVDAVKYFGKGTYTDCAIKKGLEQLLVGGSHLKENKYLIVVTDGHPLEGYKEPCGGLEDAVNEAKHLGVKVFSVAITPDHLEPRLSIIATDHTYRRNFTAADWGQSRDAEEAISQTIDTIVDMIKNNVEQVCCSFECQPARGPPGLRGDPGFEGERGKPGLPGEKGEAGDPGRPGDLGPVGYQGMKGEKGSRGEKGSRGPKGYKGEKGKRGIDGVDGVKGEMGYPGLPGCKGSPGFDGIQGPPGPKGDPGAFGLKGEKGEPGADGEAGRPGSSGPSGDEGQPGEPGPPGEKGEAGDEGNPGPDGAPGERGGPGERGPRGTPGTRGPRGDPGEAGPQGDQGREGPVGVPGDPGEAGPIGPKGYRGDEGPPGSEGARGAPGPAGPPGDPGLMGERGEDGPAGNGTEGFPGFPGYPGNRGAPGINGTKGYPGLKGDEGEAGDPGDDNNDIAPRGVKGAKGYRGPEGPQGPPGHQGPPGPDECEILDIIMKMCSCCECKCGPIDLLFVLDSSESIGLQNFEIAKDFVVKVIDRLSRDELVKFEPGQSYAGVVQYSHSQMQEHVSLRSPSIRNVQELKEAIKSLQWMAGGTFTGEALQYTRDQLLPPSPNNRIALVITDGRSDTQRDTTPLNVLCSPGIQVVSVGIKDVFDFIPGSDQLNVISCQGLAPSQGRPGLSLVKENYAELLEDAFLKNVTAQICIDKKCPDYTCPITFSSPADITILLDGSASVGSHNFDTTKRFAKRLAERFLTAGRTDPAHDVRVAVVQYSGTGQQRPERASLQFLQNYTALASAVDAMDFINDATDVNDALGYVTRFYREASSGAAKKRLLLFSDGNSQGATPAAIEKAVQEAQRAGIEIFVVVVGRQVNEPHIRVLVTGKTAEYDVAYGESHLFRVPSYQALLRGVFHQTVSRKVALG
T1 sequence (P12110 21-1019): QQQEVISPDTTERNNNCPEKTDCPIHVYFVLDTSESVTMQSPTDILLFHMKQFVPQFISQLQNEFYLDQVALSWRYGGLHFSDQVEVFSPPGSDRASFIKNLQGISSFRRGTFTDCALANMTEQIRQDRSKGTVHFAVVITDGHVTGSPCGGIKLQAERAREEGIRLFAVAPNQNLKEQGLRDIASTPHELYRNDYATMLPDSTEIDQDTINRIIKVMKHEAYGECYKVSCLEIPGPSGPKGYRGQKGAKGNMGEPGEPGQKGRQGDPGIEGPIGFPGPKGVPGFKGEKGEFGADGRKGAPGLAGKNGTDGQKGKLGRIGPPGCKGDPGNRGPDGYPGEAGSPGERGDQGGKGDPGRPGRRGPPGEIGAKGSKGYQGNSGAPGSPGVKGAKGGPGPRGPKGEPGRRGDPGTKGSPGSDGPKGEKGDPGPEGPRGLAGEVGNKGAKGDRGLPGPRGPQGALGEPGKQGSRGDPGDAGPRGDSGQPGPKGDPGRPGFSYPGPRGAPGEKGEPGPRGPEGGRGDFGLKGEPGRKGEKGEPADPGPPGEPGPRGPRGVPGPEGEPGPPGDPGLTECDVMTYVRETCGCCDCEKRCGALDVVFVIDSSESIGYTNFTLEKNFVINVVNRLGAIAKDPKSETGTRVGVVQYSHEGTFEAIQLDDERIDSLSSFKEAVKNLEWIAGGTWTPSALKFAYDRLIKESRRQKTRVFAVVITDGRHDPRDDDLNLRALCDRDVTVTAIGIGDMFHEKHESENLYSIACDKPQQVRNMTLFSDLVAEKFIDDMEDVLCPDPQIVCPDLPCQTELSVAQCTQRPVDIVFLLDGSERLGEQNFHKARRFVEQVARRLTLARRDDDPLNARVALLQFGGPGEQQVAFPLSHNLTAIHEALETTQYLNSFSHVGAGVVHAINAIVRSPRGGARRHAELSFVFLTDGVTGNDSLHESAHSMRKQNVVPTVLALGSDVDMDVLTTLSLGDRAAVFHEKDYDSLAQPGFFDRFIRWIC
T1 sequence (P12111 26-3177): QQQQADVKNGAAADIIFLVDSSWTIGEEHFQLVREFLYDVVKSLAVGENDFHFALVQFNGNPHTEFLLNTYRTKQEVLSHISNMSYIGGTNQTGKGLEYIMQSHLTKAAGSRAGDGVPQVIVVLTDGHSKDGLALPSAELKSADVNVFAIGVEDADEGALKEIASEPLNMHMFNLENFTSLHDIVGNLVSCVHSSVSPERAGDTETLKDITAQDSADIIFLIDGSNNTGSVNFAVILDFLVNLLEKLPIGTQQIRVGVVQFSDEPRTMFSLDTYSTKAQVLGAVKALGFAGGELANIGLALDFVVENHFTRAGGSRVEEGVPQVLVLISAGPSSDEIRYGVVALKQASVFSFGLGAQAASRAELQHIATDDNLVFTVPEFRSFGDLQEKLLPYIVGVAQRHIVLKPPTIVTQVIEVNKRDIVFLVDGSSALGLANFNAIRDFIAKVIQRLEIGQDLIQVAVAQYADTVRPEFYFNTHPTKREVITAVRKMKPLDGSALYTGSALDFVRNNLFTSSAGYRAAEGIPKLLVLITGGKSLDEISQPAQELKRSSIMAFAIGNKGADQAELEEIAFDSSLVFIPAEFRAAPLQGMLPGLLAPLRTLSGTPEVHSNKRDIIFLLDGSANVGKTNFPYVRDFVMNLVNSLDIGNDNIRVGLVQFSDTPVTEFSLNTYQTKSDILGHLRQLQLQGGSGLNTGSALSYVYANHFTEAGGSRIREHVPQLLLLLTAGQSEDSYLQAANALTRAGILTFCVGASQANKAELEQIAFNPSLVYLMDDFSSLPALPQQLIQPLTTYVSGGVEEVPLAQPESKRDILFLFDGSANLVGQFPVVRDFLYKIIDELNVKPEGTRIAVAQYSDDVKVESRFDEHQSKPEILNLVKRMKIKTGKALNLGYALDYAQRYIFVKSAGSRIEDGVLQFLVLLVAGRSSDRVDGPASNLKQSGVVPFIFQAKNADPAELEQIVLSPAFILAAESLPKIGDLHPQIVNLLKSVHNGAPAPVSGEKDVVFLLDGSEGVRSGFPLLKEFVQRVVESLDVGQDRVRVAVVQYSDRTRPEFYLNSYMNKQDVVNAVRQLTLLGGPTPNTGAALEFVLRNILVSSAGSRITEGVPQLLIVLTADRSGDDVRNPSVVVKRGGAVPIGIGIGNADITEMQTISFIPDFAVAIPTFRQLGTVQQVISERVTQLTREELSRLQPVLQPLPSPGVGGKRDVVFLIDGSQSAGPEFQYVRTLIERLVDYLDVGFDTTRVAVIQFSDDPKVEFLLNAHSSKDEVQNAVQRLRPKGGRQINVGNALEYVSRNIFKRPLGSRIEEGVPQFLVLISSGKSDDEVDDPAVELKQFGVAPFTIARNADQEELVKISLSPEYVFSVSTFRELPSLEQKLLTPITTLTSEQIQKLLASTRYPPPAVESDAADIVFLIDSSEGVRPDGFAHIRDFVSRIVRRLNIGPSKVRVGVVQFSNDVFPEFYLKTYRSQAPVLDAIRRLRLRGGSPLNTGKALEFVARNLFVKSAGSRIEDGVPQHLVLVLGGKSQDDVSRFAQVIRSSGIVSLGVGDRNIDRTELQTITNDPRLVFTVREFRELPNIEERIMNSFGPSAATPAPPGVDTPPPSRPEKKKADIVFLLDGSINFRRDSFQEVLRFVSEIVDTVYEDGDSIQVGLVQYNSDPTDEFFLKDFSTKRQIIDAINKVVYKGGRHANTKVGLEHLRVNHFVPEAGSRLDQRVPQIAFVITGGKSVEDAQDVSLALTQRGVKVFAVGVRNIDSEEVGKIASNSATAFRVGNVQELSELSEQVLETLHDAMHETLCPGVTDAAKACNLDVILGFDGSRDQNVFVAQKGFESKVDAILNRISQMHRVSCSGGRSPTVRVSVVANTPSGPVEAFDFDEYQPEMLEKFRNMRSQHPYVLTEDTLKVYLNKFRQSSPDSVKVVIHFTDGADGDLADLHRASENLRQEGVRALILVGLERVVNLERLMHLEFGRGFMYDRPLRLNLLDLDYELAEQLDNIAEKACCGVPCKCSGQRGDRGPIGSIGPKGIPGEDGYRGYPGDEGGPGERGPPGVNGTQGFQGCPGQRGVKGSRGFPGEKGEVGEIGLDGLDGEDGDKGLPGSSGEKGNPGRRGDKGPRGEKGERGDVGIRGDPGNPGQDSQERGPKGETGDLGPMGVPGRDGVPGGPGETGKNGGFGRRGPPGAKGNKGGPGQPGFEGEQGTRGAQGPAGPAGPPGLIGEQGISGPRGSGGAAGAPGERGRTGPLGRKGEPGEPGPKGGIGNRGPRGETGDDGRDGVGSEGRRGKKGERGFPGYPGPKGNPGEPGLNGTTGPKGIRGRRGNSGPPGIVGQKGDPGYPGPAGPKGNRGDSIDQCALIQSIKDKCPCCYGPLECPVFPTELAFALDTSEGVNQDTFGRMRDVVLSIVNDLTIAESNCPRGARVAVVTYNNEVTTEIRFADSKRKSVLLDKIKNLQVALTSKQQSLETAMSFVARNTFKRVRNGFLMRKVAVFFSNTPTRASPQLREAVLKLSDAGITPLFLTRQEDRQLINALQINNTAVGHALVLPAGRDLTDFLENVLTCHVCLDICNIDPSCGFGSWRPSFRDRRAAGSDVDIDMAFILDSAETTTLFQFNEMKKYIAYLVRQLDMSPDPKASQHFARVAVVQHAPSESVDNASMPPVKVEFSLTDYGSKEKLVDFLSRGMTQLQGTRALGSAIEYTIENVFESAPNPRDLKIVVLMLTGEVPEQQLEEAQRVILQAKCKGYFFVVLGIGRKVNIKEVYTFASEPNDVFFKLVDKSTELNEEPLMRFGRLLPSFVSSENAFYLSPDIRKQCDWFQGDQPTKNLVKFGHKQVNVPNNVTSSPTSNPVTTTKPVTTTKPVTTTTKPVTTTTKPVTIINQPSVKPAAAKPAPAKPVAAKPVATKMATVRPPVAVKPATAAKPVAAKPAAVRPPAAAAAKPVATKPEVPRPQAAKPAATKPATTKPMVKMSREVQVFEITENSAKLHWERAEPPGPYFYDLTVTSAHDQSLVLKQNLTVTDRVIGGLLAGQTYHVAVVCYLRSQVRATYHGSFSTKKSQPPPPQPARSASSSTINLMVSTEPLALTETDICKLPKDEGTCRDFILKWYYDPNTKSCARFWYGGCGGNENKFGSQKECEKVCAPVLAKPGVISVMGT

binding curve to collagen type VI (collagen type VI): fits a typical hyperbolic binding curve
B1: zsig37: adipocyte complement related protein homolog, polypeptide of SEQ ID NO:2, inhibits collagen-mediated platelet activation and the complement pathway (protein, listed as Homo sapiens)
chain: MGSRGQGLLLAYCLLLAFASGLVLSRVPHVQGEQQEWEGTEELPSPPDHAERAEEQHEKYRPSQDQGLPASRCLRCCDPGTSMYPATAVPQINITILKGEKGDRGDRGLQGKYGKTGSAGARGHTGPKGQKGSMGAPGERCKSHYAAFSVGRKKPMHSNHYYQTVIFDTEFVNLYDHFNMFTGKFYCYVPGLYFFSLNVHTWNQKETYLHIMKNEEEVVILFAQVGDRSIMQSQSLMLELREQDQVWVRLYKGERENAIFSEELDTYITFSGYLVKHATEP
inhibition of classical pathway lysis ([1]; sensitized sheep erythrocytes): effective in inhibiting the classical pathway | inhibition of classical pathway lysis ([1]; unsensitized sheep erythrocytes): effective in inhibiting the classical pathway | time to fully patent vessels following treatment ([2]; 0.5 mg/kg): ≤ 30 min | time to fully patent vessels following treatment ([2]; 1.0 mg/kg): ≤ 20 min | dose response of vasodilatation [3]: dose response could not be determined | rings vasodilated ([3]; two of seven controls dilated, Fisher exact P 0.045): 10 of the 12
